# Biological target: complement factor C1q
# Assay: FACS, C1q on antibody-coated BT-474 cells, 10 ug/ml each
# complement factor C1q, sequence (P02745 23-245, chain 1 of 3): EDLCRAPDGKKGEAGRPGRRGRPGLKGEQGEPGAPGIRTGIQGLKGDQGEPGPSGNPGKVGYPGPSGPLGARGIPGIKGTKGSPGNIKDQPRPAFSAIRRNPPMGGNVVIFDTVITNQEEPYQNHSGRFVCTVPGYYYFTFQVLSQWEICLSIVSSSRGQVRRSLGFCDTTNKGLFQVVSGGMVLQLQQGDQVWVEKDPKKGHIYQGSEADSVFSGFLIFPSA
# complement factor C1q, sequence (P02746 28-253, chain 2 of 3, further chain): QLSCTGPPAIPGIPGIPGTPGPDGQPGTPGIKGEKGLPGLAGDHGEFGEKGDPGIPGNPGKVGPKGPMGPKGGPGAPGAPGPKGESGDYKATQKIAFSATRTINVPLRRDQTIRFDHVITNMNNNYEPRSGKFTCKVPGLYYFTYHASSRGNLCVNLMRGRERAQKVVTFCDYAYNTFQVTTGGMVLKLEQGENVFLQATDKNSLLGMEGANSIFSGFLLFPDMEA
# complement factor C1q, sequence (P02747 29-245, chain 3 of 3, further chain): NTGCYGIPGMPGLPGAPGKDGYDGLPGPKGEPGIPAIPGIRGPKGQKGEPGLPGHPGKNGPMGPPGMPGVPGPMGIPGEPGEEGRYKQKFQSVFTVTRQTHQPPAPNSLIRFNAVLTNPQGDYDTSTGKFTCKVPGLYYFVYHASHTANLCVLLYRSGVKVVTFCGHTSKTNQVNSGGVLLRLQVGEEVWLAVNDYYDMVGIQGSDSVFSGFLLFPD
substance,measurement,value
combination of trastuzumab and pertuzumab,PE-signal (geomean),2160

# Source: patent US20230212312A1
